Source: article PMC9181005, “Insights to the Structural Basis for the Stereospecificity of the Escherichia coli Phytase, AppA” (International Journal of Molecular Sciences, 2022)
Numbering of substitutions follows the chain as printed. Numbers in names are those of the source.

What was measured:
[1] = target: T1, AppA (Escherichia coli periplasmic phytase) (Escherichia coli, UniProt P07102); assay: X-ray crystal structure at […] Å (soak at pH […]); phytase inhibition assay at pH […]; assay type: biochemical
T1 construct: mature enzyme lacking the periplasmic signal peptide (residues 1–22)
T1 sequence (P07102 23-432): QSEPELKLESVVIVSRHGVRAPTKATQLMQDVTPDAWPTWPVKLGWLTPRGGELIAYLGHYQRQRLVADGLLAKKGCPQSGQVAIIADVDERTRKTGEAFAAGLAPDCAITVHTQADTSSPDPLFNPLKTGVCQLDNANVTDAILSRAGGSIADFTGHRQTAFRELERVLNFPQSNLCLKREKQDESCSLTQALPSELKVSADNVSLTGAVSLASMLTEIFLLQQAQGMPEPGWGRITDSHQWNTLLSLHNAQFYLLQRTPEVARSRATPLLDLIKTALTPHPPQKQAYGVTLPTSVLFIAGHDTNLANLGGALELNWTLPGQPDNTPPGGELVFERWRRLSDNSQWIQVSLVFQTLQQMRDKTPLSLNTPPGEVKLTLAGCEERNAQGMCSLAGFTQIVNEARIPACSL

[2] = substrate: O=P(O)(O)O[C@H]1[C@H](OP(=O)(O)O)[C@@H](OP(=O)(O)O)[C@H](OP(=O)(O)O)[C@@H](OP(=O)(O)O)[C@H]1OP(=O)(O)O; assay: phosphate release kinetics (Km), HPLC of products; assay type: biochemical, Escherichia coli; conditions: active site
[3] = preferential hydrolysis of the 1D-6-phosphate
[4] = predominantly 1D-1/3-phytase activity

Work on `O=S(=O)(O)O[C@H]1[C@H](OS(=O)(=O)O)[C@@H](OS(=O)(=O)O)[C@H](OS(=O)(=O)O)[C@@H](OS(=O)(=O)O)[C@H]1OS(=O)(=O)O` [InsS6] yielded an IC50 [1] of about 10 µM.

B1: AppA (Escherichia coli periplasmic phytase) (Escherichia coli K-12) (protein)
chain: T1 sequence (P07102 23-432)
notes: mature enzyme lacking the periplasmic signal peptide (residues 1–22)
For B1, the Km [2, 3] was 161 µM, the kcat [2, 3] was 10200 s⁻¹ and the kcat/Km [2, 3] was 6.4e+07 M⁻¹ s⁻¹.

B2: AppA-HDE (Escherichia coli K-12; T327E) (protein)
chain: T1 sequence (P07102 23-432) with T305E
notes: as for B1
B2 gave a Km [2] of 92 µM, a kcat [2] of 1690 s⁻¹ and a kcat/Km [2] of 1.8e+07 M⁻¹ s⁻¹.

B3: AppA-HET (Escherichia coli K-12; D326E) (protein)
chain: T1 sequence (P07102 23-432) with D304E
notes: as for B1
B3 was tested, and the Km [2] was 171 µM, the kcat [2] was 128 s⁻¹ and the kcat/Km [2] was 700000 M⁻¹ s⁻¹.

B4: AppA-HAT (Escherichia coli K-12; D326A) (protein)
chain: T1 sequence (P07102 23-432) with D304A
notes: as for B1
In the case of B4, the Km [2, 4] is reported as 32 µM, the kcat [2, 4] is reported as 10.5 s⁻¹ and the kcat/Km [2, 4] is reported as 320000 M⁻¹ s⁻¹.

B5: AppA-HAE (Escherichia coli K-12; D326A/T327E) (protein)
chain: T1 sequence (P07102 23-432) with D304A, T305E
notes: as for B1
For B5, the Km [2] was 33 µM, the kcat [2] was 12.5 s⁻¹ and the kcat/Km [2] was 380000 M⁻¹ s⁻¹.
